Measured values taken from paper PMC9482650, “Quantitative fragmentomics allow affinity mapping of interactomes” (Nature Communications, 2022).

Experiments:
Assay in all cases: holdup assay
Design in all cases: key: below the threshold = too weak to quantify, mostly under pKd 3.1 to 4
[1] = biological target: T1, DLG3_2, Q92796
T1 sequence (Q92796 221-321, limits assumed, looked up): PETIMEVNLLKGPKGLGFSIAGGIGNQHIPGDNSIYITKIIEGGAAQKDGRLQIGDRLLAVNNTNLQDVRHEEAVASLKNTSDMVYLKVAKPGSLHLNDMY

[2] = biological target: T2, DFNB31_2, Q9P202
T2 sequence (Q9P202 274-371, limits assumed, looked up): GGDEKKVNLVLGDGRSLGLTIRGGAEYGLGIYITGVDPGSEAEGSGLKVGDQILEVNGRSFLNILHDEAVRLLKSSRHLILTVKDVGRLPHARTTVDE

[3] = biological target: T3, NHERF3_3, Q5T2W1
T3 sequence (Q5T2W1 238-333, limits assumed, looked up): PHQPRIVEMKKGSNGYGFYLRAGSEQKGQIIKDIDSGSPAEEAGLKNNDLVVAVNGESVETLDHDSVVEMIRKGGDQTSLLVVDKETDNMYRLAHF

[4] = biological target: AHNAK1, Q09666
AHNAK1, Q09666, sequence (Q09666 4-100): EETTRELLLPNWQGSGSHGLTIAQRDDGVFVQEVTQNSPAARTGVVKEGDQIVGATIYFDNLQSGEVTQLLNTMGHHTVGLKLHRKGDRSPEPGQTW

[5] = biological target: Inadl_4, Q8NI35
Inadl_4, Q8NI35, sequence (Q8NI35 547-651): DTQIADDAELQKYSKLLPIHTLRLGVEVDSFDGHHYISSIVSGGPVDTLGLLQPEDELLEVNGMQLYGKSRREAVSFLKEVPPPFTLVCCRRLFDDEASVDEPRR

[6] = biological target: Inadl_10, Q8NI35
Inadl_10, Q8NI35, sequence (Q8NI35 1673-1763): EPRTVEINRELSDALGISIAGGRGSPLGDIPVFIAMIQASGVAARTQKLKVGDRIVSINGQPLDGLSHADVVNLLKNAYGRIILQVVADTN

[7] = biological target: T4, TIAM2, Q8IVF5
T4 sequence (Q8IVF5 885-986, limits assumed, looked up): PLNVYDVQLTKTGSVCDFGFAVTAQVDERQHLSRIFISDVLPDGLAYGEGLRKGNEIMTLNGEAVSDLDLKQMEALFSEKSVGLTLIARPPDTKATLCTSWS

[8] = biological target: MAGI2_3, Q86UL8
MAGI2_3, Q86UL8, sequence (Q86UL8 600-682): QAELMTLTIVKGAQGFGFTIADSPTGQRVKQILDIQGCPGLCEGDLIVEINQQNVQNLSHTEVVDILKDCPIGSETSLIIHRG

[9] = biological target: SCRIB_2, Q14160
SCRIB_2, Q14160, sequence (Q14160 857-960): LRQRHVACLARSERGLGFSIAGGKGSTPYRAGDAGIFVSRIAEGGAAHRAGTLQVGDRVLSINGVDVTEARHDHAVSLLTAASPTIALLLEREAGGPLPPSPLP

[10] = biological target: PICK1, Q9NRD5
PICK1, Q9NRD5, sequence (Q9NRD5 17-115): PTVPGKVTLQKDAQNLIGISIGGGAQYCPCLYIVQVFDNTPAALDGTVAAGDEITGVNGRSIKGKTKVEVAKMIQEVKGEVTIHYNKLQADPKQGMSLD

[11] = biological target: CASK, O14936
CASK, O14936, sequence (O14936 487-570): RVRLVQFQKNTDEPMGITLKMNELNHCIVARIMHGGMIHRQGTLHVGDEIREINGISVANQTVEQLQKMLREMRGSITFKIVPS

[12] = biological target: T5, RHPN1, Q8TCX5
T5 sequence (Q8TCX5 508-602, limits assumed, looked up): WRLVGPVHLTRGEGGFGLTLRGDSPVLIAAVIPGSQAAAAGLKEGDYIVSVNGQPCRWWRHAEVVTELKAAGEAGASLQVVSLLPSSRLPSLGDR

[13] = biological target: Inadl_2, Q8NI35
Inadl_2, Q8NI35, sequence (Q8NI35 238-335): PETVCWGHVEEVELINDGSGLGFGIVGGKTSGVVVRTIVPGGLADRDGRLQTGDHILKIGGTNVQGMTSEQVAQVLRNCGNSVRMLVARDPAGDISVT

[14] = biological target: LNX1_1, Q8TBB1
LNX1_1, Q8TBB1, sequence (Q8TBB1 261-371): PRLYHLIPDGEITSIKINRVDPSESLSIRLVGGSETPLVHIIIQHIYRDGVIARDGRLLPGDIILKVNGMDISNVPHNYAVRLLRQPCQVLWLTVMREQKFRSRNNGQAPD

[15] = biological target: DLG1_1, Q12959
[16] = biological target: GOPC, Q9HD26
[17] = biological target: T6, DLG3_3, Q92796
T6 sequence (Q92796 374-475, limits assumed, looked up): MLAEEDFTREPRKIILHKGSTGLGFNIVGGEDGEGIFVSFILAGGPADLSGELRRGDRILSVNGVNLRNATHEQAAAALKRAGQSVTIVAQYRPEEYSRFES

[18] = biological target: PDZRN4_1, Q6ZMN7
PDZRN4_1, Q6ZMN7, sequence (Q6ZMN7 213-318): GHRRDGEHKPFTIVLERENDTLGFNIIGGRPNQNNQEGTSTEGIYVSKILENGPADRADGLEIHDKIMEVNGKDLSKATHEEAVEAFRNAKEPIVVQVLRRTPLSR

[19] = biological target: GRID2IP_1, A4D2P6
GRID2IP_1, A4D2P6, sequence (A4D2P6 1-87): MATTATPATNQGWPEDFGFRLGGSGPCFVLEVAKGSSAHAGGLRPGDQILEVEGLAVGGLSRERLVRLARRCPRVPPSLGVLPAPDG

[20] = biological target: LDB3, O75112
LDB3, O75112, sequence (O75112 1-94): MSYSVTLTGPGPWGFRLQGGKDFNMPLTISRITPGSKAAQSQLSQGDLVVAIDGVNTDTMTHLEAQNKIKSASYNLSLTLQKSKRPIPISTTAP

[21] = biological target: T7, LRRC7, Q96NW7
T7 sequence (Q96NW7 1440-1537, limits assumed, looked up): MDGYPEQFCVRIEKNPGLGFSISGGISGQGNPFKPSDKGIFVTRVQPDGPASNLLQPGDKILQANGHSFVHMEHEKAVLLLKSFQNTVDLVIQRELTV

[22] = biological target: T8, LNX2_3, Q8N448
T8 sequence (Q8N448 463-564, limits assumed, looked up): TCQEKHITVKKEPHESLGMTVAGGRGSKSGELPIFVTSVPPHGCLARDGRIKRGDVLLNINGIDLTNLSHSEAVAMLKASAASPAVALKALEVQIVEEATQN

[23] = biological target: T9, MPP2, Q14168
T9 sequence (Q14168 180-250, limits assumed, looked up): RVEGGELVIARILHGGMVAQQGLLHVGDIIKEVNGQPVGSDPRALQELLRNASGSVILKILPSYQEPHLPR

[24] = biological target: DLG1_3, Q12959
[25] = biological target: T10, GRIP1_3, Q9Y3R0
T10 sequence (Q9Y3R0 247-346, limits assumed, looked up): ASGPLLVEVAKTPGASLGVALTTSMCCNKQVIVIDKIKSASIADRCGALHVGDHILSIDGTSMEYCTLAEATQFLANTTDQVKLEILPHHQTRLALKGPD

[26] = biological target: SCRIB_1, Q14160
SCRIB_1, Q14160, sequence (Q14160 718-814): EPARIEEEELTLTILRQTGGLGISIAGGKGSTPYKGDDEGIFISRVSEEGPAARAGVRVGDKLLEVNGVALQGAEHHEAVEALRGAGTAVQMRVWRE

[27] = biological target: T11, RAPGEF6, Q8TEU7
T11 sequence (Q8TEU7 525-625, limits assumed, looked up): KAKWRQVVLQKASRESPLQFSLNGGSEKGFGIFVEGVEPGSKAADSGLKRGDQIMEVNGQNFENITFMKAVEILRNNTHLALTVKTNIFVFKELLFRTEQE

[28] = plain residues with an end cap or a label only (N-terminal biotin on a linker: ahx)
[29] = plain residues with an end cap or a label only (N-terminal biotin on a linker: ttds)

ADENEQVSAV [RAPGEF6, Q8TEU7]
pKd [1, 28]: 4 | pKd [2, 28]: below the threshold | pKd [3, 28]: below the threshold | pKd [4, 28]: below the threshold | pKd [5, 28]: below the threshold | pKd [6, 28]: below the threshold | pKd [7, 28]: below the threshold | pKd [8, 28]: 4.15 | pKd [9, 28]: below the threshold | pKd [10, 28]: below the threshold | pKd [11, 28]: below the threshold | pKd [12, 28]: 4.42 | pKd [13, 28]: below the threshold | pKd [14, 28]: below the threshold | pKd [15, 28]: below the threshold | pKd [16, 28]: below the threshold | pKd [17, 28]: below the threshold | pKd [18, 28]: below the threshold | pKd [19, 28]: below the threshold | pKd [20, 28]: below the threshold | pKd [21, 28]: below the threshold | pKd [22, 28]: below the threshold | pKd [23, 28]: below the threshold | pKd [24, 28]: below the threshold | pKd [25, 28]: below the threshold | pKd [26, 28]: 3.65 | pKd [27, 28]: below the threshold

SGGKRKETLV [NET1, Q7Z628]
pKd [1, 29]: 5.43 | pKd [2, 29]: below the threshold | pKd [3, 29]: below the threshold | pKd [4, 29]: 3.56 | pKd [5, 29]: below the threshold | pKd [6, 29]: below the threshold | pKd [7, 29]: below the threshold | pKd [8, 29]: 4.5 | pKd [9, 29]: 3.54 | pKd [10, 29]: below the threshold | pKd [11, 29]: below the threshold | pKd [12, 29]: 3.65 | pKd [13, 29]: below the threshold | pKd [14, 29]: below the threshold | pKd [15, 29]: 5.09 | pKd [16, 29]: 3.82 | pKd [17, 29]: 5.05 | pKd [18, 29]: 4.31 | pKd [19, 29]: below the threshold | pKd [20, 29]: below the threshold | pKd [21, 29]: below the threshold | pKd [22, 29]: below the threshold | pKd [23, 29]: below the threshold | pKd [24, 29]: 4.44 | pKd [25, 29]: below the threshold | pKd [26, 29]: 4 | pKd [27, 29]: below the threshold

SRSRRRETAL [HPV33-E6, P06427]
pKd [1, 29]: 4.61 | pKd [2, 29]: 3.55 | pKd [3, 29]: below the threshold | pKd [4, 29]: 3.62 | pKd [5, 29]: below the threshold | pKd [6, 29]: below the threshold | pKd [7, 29]: below the threshold | pKd [8, 29]: below the threshold | pKd [9, 29]: 4.61 | pKd [10, 29]: below the threshold | pKd [11, 29]: below the threshold | pKd [12, 29]: 3.81 | pKd [13, 29]: below the threshold | pKd [14, 29]: below the threshold | pKd [15, 29]: 4.5 | pKd [16, 29]: 3.97 | pKd [17, 29]: 5.07 | pKd [18, 29]: 5.21 | pKd [19, 29]: below the threshold | pKd [20, 29]: below the threshold | pKd [21, 29]: 3.68 | pKd [22, 29]: below the threshold | pKd [23, 29]: below the threshold | pKd [24, 29]: 4.56 | pKd [25, 29]: below the threshold | pKd [26, 29]: 5.66 | pKd [27, 29]: below the threshold

SAPATLSSRA [PDLIM2, Q96JY6]
pKd [1, 28]: below the threshold | pKd [2, 28]: below the threshold | pKd [3, 28]: below the threshold | pKd [4, 28]: below the threshold | pKd [5, 28]: below the threshold | pKd [6, 28]: below the threshold | pKd [7, 28]: below the threshold | pKd [8, 28]: below the threshold | pKd [9, 28]: below the threshold | pKd [10, 28]: below the threshold | pKd [11, 28]: below the threshold | pKd [12, 28]: below the threshold | pKd [13, 28]: below the threshold | pKd [14, 28]: 3.67 | pKd [15, 28]: below the threshold | pKd [16, 28]: below the threshold | pKd [17, 28]: below the threshold | pKd [18, 28]: below the threshold | pKd [19, 28]: below the threshold | pKd [20, 28]: below the threshold | pKd [21, 28]: below the threshold | pKd [22, 28]: below the threshold | pKd [23, 28]: below the threshold | pKd [24, 28]: below the threshold | pKd [25, 28]: below the threshold | pKd [26, 28]: below the threshold | pKd [27, 28]: below the threshold

FVETQHQTQV [FAT3, Q8TDW7]
pKd [1, 29]: 4.71 | pKd [2, 29]: below the threshold | pKd [3, 29]: below the threshold | pKd [4, 29]: 3.52 | pKd [5, 29]: below the threshold | pKd [6, 29]: 3.5 | pKd [7, 29]: below the threshold | pKd [8, 29]: 3.63 | pKd [9, 29]: 4.15 | pKd [10, 29]: below the threshold | pKd [11, 29]: below the threshold | pKd [12, 29]: 4.32 | pKd [13, 29]: 3.56 | pKd [14, 29]: below the threshold | pKd [15, 29]: 4.32 | pKd [16, 29]: 3.76 | pKd [17, 29]: 3.58 | pKd [18, 29]: below the threshold | pKd [19, 29]: below the threshold | pKd [20, 29]: below the threshold | pKd [21, 29]: below the threshold | pKd [22, 29]: below the threshold | pKd [23, 29]: below the threshold | pKd [24, 29]: 3.95 | pKd [25, 29]: 3.62 | pKd [26, 29]: below the threshold | pKd [27, 29]: below the threshold
